# Experimental data as given in patent US20140087995A1 (published 2014).
# Numbered stars: 1 amine (or outer) side, 2 acyl side, 3 side chain; on linkers, the order of the positions; unused ones are H or OH. Bridge positions count the residues as written; N and C are the ends. Side chains are listed from the residue outwards. Ends that are not written are not given here. * marks the point of attachment. C20 diacid = O=C(O)CCCCCCCCCCCCCCCCCCC(=O)*; γGlu = O=C(O)[C@H](CCC(=O)[*:2])N[*:1]
# T1: human amylin receptor (amylin 3(a) receptor: human calcitonin receptor plus RAMP-3) (human, UniProt P30988 25-474; O60896 24-148, limits assumed)
# T1 construct: whole, on cells; the functional assay (Assay IIa) used the whole cells; also called hAmylin-R; hAmylinR
# T1 sequence (looked up) 1: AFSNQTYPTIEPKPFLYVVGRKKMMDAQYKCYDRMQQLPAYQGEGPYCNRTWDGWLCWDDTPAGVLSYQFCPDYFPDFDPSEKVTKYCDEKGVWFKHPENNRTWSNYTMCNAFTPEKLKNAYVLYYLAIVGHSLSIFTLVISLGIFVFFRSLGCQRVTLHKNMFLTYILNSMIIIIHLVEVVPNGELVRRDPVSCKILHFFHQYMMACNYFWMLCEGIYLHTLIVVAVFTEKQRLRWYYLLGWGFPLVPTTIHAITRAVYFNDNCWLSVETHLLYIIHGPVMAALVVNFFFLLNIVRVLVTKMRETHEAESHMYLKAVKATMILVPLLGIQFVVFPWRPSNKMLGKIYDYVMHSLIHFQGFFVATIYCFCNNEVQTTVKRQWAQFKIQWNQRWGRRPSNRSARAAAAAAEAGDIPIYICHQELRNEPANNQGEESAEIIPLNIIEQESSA
# T1 sequence (looked up) 2: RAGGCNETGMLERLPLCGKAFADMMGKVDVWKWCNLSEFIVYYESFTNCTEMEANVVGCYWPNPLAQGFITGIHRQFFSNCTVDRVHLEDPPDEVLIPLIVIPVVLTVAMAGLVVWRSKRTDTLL
# T2: human calcitonin receptor (human, UniProt P30988 25-474)
# T2 sequence (looked up): T1 sequence (looked up) 1
# B1: N^α1-[(4S)-4-carboxy-4-(19-carboxynonadecanoylamino)butanoyl]-[Glu14,Arg17,Pro21,Pro27,Pro34]-h-amylin (peptide)
# peptide: {C20 diacid-γGlu}-KCNTATCATQRLAEFLRHSSPNFGAIPSSTNVGPNTY-NH2
# modifications: disulfide 2-7
# SMILES: CC[C@H](C)[C@H](NC(=O)[C@H](C)NC(=O)CNC(=O)[C@H](Cc1ccccc1)NC(=O)[C@H](CC(N)=O)NC(=O)[C@@H]1CCCN1C(=O)[C@H](CO)NC(=O)[C@H](CO)NC(=O)[C@H](Cc1c[nH]cn1)NC(=O)[C@H](CCCNC(=N)N)NC(=O)[C@H](CC(C)C)NC(=O)[C@H](Cc1ccccc1)NC(=O)[C@H](CCC(=O)O)NC(=O)[C@H](C)NC(=O)[C@H](CC(C)C)NC(=O)[C@H](CCCNC(=N)N)NC(=O)[C@H](CCC(N)=O)NC(=O)[C@@H](NC(=O)[C@H](C)NC(=O)[C@@H]1CSSC[C@H](NC(=O)[C@H](CCCCN)NC(=O)CC[C@H](NC(=O)CCCCCCCCCCCCCCCCCCC(=O)O)C(=O)O)C(=O)N[C@@H](CC(N)=O)C(=O)N[C@@H]([C@@H](C)O)C(=O)N[C@@H](C)C(=O)N[C@@H]([C@@H](C)O)C(=O)N1)[C@@H](C)O)C(=O)N1CCC[C@H]1C(=O)N[C@@H](CO)C(=O)N[C@@H](CO)C(=O)N[C@H](C(=O)N[C@@H](CC(N)=O)C(=O)N[C@H](C(=O)NCC(=O)N1CCC[C@H]1C(=O)N[C@@H](CC(N)=O)C(=O)N[C@H](C(=O)N[C@@H](Cc1ccc(O)cc1)C(N)=O)[C@@H](C)O)C(C)C)[C@@H](C)O
# notes: also called compound 32
# B2: N^α1N^α1-[(4S)-4-carboxy-4-(19-carboxynonadecanoylamino)butanoyl]-[Glu14,Arg17,Pro21,Pro27,Glu35]-h-amylin (peptide)
# peptide: {C20 diacid-γGlu}-KCNTATCATQRLAEFLRHSSPNFGAIPSSTNVGSETY-NH2
# modifications: disulfide 2-7
# SMILES: CC[C@H](C)[C@H](NC(=O)[C@H](C)NC(=O)CNC(=O)[C@H](Cc1ccccc1)NC(=O)[C@H](CC(N)=O)NC(=O)[C@@H]1CCCN1C(=O)[C@H](CO)NC(=O)[C@H](CO)NC(=O)[C@H](Cc1c[nH]cn1)NC(=O)[C@H](CCCNC(=N)N)NC(=O)[C@H](CC(C)C)NC(=O)[C@H](Cc1ccccc1)NC(=O)[C@H](CCC(=O)O)NC(=O)[C@H](C)NC(=O)[C@H](CC(C)C)NC(=O)[C@H](CCCNC(=N)N)NC(=O)[C@H](CCC(N)=O)NC(=O)[C@@H](NC(=O)[C@H](C)NC(=O)[C@@H]1CSSC[C@H](NC(=O)[C@H](CCCCN)NC(=O)CC[C@H](NC(=O)CCCCCCCCCCCCCCCCCCC(=O)O)C(=O)O)C(=O)N[C@@H](CC(N)=O)C(=O)N[C@@H]([C@@H](C)O)C(=O)N[C@@H](C)C(=O)N[C@@H]([C@@H](C)O)C(=O)N1)[C@@H](C)O)C(=O)N1CCC[C@H]1C(=O)N[C@@H](CO)C(=O)N[C@@H](CO)C(=O)N[C@H](C(=O)N[C@@H](CC(N)=O)C(=O)N[C@H](C(=O)NCC(=O)N[C@@H](CO)C(=O)N[C@@H](CCC(=O)O)C(=O)N[C@H](C(=O)N[C@@H](Cc1ccc(O)cc1)C(N)=O)[C@@H](C)O)C(C)C)[C@@H](C)O
# notes: also called compound 22
# B3: N^α1-[(4S)-4-carboxy-4-(19-carboxynonadecanoylamino)butanoyl]-[Glu14,Arg17,Pro21,Pro27,Pro37]-h-amylin (peptide)
# peptide: {C20 diacid-γGlu}-KCNTATCATQRLAEFLRHSSPNFGAIPSSTNVGSNTP-NH2
# modifications: disulfide 2-7
# SMILES: CC[C@H](C)[C@H](NC(=O)[C@H](C)NC(=O)CNC(=O)[C@H](Cc1ccccc1)NC(=O)[C@H](CC(N)=O)NC(=O)[C@@H]1CCCN1C(=O)[C@H](CO)NC(=O)[C@H](CO)NC(=O)[C@H](Cc1c[nH]cn1)NC(=O)[C@H](CCCNC(=N)N)NC(=O)[C@H](CC(C)C)NC(=O)[C@H](Cc1ccccc1)NC(=O)[C@H](CCC(=O)O)NC(=O)[C@H](C)NC(=O)[C@H](CC(C)C)NC(=O)[C@H](CCCNC(=N)N)NC(=O)[C@H](CCC(N)=O)NC(=O)[C@@H](NC(=O)[C@H](C)NC(=O)[C@@H]1CSSC[C@H](NC(=O)[C@H](CCCCN)NC(=O)CC[C@H](NC(=O)CCCCCCCCCCCCCCCCCCC(=O)O)C(=O)O)C(=O)N[C@@H](CC(N)=O)C(=O)N[C@@H]([C@@H](C)O)C(=O)N[C@@H](C)C(=O)N[C@@H]([C@@H](C)O)C(=O)N1)[C@@H](C)O)C(=O)N1CCC[C@H]1C(=O)N[C@@H](CO)C(=O)N[C@@H](CO)C(=O)N[C@H](C(=O)N[C@@H](CC(N)=O)C(=O)N[C@H](C(=O)NCC(=O)N[C@@H](CO)C(=O)N[C@@H](CC(N)=O)C(=O)N[C@H](C(=O)N1CCC[C@H]1C(N)=O)[C@@H](C)O)C(C)C)[C@@H](C)O
# notes: also called compound 8
# B4: N^ε1-[(4S)-4-carboxy-4-[[(4S)-4-carboxy-4-(19-carboxynonadecanoylamino)butanoyl]amino]butanoyl]-[Glu14,Arg17,Pro21,Pro27,Pro37]-h-amylin (peptide)
# peptide: K([γGlu-γGlu-C20 diacid])CNTATCATQRLAEFLRHSSPNFGAIPSSTNVGSNTP-NH2
# modifications: disulfide 2-7; N-terminus assumed
# SMILES: CC[C@H](C)[C@H](NC(=O)[C@H](C)NC(=O)CNC(=O)[C@H](Cc1ccccc1)NC(=O)[C@H](CC(N)=O)NC(=O)[C@@H]1CCCN1C(=O)[C@H](CO)NC(=O)[C@H](CO)NC(=O)[C@H](Cc1c[nH]cn1)NC(=O)[C@H](CCCNC(=N)N)NC(=O)[C@H](CC(C)C)NC(=O)[C@H](Cc1ccccc1)NC(=O)[C@H](CCC(=O)O)NC(=O)[C@H](C)NC(=O)[C@H](CC(C)C)NC(=O)[C@H](CCCNC(=N)N)NC(=O)[C@H](CCC(N)=O)NC(=O)[C@@H](NC(=O)[C@H](C)NC(=O)[C@@H]1CSSC[C@H](NC(=O)[C@@H](N)CCCCNC(=O)CC[C@H](NC(=O)CC[C@H](NC(=O)CCCCCCCCCCCCCCCCCCC(=O)O)C(=O)O)C(=O)O)C(=O)N[C@@H](CC(N)=O)C(=O)N[C@@H]([C@@H](C)O)C(=O)N[C@@H](C)C(=O)N[C@@H]([C@@H](C)O)C(=O)N1)[C@@H](C)O)C(=O)N1CCC[C@H]1C(=O)N[C@@H](CO)C(=O)N[C@@H](CO)C(=O)N[C@H](C(=O)N[C@@H](CC(N)=O)C(=O)N[C@H](C(=O)NCC(=O)N[C@@H](CO)C(=O)N[C@@H](CC(N)=O)C(=O)N[C@H](C(=O)N1CCC[C@H]1C(N)=O)[C@@H](C)O)C(C)C)[C@@H](C)O
# notes: also called compound 13
# B5: N^α1-[(4S)-4-carboxy-4-[[(4S)-4-carboxy-4-(19-carboxynonadecanoylamino)butanoyl]amino]butanoyl]-[Glu14,Arg17,Pro21,Pro27,Pro37]-h-amylin (peptide)
# peptide: {C20 diacid-γGlu-γGlu}-KCNTATCATQRLAEFLRHSSPNFGAIPSSTNVGSNTP-NH2
# modifications: disulfide 2-7
# SMILES: CC[C@H](C)[C@H](NC(=O)[C@H](C)NC(=O)CNC(=O)[C@H](Cc1ccccc1)NC(=O)[C@H](CC(N)=O)NC(=O)[C@@H]1CCCN1C(=O)[C@H](CO)NC(=O)[C@H](CO)NC(=O)[C@H](Cc1c[nH]cn1)NC(=O)[C@H](CCCNC(=N)N)NC(=O)[C@H](CC(C)C)NC(=O)[C@H](Cc1ccccc1)NC(=O)[C@H](CCC(=O)O)NC(=O)[C@H](C)NC(=O)[C@H](CC(C)C)NC(=O)[C@H](CCCNC(=N)N)NC(=O)[C@H](CCC(N)=O)NC(=O)[C@@H](NC(=O)[C@H](C)NC(=O)[C@@H]1CSSC[C@H](NC(=O)[C@H](CCCCN)NC(=O)CC[C@H](NC(=O)CC[C@H](NC(=O)CCCCCCCCCCCCCCCCCCC(=O)O)C(=O)O)C(=O)O)C(=O)N[C@@H](CC(N)=O)C(=O)N[C@@H]([C@@H](C)O)C(=O)N[C@@H](C)C(=O)N[C@@H]([C@@H](C)O)C(=O)N1)[C@@H](C)O)C(=O)N1CCC[C@H]1C(=O)N[C@@H](CO)C(=O)N[C@@H](CO)C(=O)N[C@H](C(=O)N[C@@H](CC(N)=O)C(=O)N[C@H](C(=O)NCC(=O)N[C@@H](CO)C(=O)N[C@@H](CC(N)=O)C(=O)N[C@H](C(=O)N1CCC[C@H]1C(N)=O)[C@@H](C)O)C(C)C)[C@@H](C)O
# notes: also called compound 14
# Biological target: T1, human amylin receptor (amylin 3(a) …)
# Test: SPA competition binding, membranes of Amylin 3(a)/CRE-luc BHK cells, displacement of 125I-rat amylin (Assay V)
# Experimental: The binding assay was performed using scintillation proximity assay (SPA) beads (RPNQ0001) from PerkinElmer and cell membranes from the Amylin 3(a)/CRE-luc cells (as described in Assay (II)) were used. Membranes were prepared in the following way; the cells were rinsed with PBS and incubated with Versene for approximately 5 min before harvesting. The cells were flushed with PBS and the cell-suspension was centrifuged for 5 min at 1000 rpm. Cells were homogenized (ultrathurrax) in a buffer containing 20 mM Na-HEPES and 10 mM EDTA (pH 7.4) and centrifuged at 20.000 rpm for 15 min. The resulting pellet was resuspended, homogenized and centrifuged (20.000 rpm, 15 min) in a buffer containing 20 mM Na-HEPES and 0.1 mM EDTA (pH 7.4, buffer 2). The resulting pellet was resuspended in buffer 2 and protein concentration was measured (BCA protein Assay, Pierce). The homogenate was kept cold during the whole procedure. The membranes were kept at −80° C. until use. The assay was performed in a 384 well Optiplate (PerkinElmer) in a total volume of 40 ul. Membranes were mixed with SPA beads. Final concentration of membranes 35 ng/μL final and SPA beads was 0.05 mg/well. Test-compounds were dissolved in DMSO and further diluted in assay buffer (50 mM Hepes, pH 7.4, 1 mM CaCl2, 5 mM MgCl₂, 0.1% OA and 0.02% Tween20). […] The final mixture was incubated with shaking at 400 rpm for 120 min at 25° C. prior to centrifugation (1500 rpm, 10 min). Samples were analyzed on TopCounter™ (Packard). The IC₅₀ was calculated using (one site binding competition analysis) GraphPad Prism5 as a measure of receptor affinity.
row,IC50 [nM],Binder
1,0.1,B1
2,0.794,B2
3,0.072,B3
4,0.264,B4
5,0.196,B5

# Biological target: T2, human calcitonin receptor
# Test: cell-based or functional assay
Ratio hCT/hAmylin funct. (hCTR EC50 against hAmylin-R EC50),hCTR funct. EC50 [nM],Binder
6.6,0.327,B1
3.8,1.03,B2
1.1,0.087,B3
2.2,0.47,B4
1.6,0.238,B5

# Biological target: T1, human amylin receptor (amylin 3(a) …)
# Test: cell-based or functional assay
row,hAmylin-R funct. EC50 [nM],Binder
1,0.05,B1
2,0.27,B2
3,0.082,B3
4,0.213,B4
5,0.146,B5
